Values of other authors as cited in PMC11988861, “Step Enzymatic Hydrolysis and In Silico Screening-Assisted Preparation of Bioactive Peptides from Abalone” (Foods, 2025).

Target: ACE (Homo sapiens, UniProt P12821)
Parameters: method as in PMID 35323475
Details: literature ACEi peptides from skipjack tuna muscle

Sequence of ACE (P12821 30-1306, species assumed): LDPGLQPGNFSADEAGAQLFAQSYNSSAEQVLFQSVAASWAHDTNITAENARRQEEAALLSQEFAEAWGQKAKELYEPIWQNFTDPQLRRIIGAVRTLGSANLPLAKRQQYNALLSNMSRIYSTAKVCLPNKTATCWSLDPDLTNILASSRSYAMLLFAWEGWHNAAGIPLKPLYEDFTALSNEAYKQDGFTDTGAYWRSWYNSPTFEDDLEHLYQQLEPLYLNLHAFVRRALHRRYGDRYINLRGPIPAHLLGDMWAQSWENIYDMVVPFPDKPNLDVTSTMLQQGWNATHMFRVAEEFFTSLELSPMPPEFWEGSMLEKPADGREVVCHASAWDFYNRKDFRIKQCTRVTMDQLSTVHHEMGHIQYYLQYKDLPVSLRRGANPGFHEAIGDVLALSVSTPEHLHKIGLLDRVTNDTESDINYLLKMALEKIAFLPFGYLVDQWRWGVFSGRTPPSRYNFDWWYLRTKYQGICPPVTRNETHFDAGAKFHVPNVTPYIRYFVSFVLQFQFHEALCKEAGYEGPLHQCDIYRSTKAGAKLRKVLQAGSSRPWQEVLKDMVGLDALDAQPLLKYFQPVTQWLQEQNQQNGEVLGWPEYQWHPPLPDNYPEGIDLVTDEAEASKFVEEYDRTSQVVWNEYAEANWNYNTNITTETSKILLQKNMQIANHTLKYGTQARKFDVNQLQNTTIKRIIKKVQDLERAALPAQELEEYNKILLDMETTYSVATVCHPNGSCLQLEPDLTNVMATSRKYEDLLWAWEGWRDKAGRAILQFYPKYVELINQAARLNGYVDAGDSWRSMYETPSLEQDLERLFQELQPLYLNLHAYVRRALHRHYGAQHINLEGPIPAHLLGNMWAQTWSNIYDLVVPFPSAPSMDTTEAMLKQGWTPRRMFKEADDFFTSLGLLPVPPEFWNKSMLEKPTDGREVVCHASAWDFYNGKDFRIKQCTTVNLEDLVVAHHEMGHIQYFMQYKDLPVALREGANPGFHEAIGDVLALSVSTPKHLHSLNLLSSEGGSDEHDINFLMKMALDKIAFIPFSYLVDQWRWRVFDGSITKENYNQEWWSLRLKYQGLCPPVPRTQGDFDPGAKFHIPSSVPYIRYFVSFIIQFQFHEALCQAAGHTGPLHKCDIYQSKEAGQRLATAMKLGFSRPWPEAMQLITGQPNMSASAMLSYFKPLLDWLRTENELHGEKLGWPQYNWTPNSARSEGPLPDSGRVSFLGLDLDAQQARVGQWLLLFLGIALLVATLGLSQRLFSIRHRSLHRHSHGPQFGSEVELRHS

## VDRYF
  ACEi IC50: 280 µg/mL
